*1 amine or outer side, *2 acyl side, *3 side chain or, on linkers, in order; H or OH if unused. Where no end group is shown, it is not given here. Side-chain parts run from the residue outwards. The star is where a group is joined. 8‑(4-carboxyphenoxy)octanoyl = O=C(O)c1ccc(OCCCCCCCC(=O)*)cc1; Decanoyl(10-(4-HOOC-PhO)) = O=C(O)c1ccc(OCCCCCCCCCC(=O)*)cc1; γGlu = O=C(O)[C@H](CCC(=O)[*:2])N[*:1]; C12 diacid = O=C(O)CCCCCCCCCCC(=O)*; 13‑carboxytridecanoyl = C14 diacid; Butanoyl(4-Ph) = O=C(CCCc1ccccc1)*; AEEA = NCCOCCOCC(=O)O; Ahx = NCCCCCC(=O)O
B1: GLP-1 derivative of Example 97: [Lys,Glu22,Arg34]-GLP-1-(7-37)-peptide (peptide)
peptide: HAEGTFTSDVSK([AEEA-AEEA-γGlu-γGlu-13‑carboxytridecanoyl])YLEEQAAK([AEEA-AEEA-γGlu-γGlu-13‑carboxytridecanoyl])EFIAWLVRGRG
notes: Name prints Lys without its number (Lys18)

How the values were obtained:
[1] = biological target: T1, human GLP-1 receptor (human, UniProt P43220 24-463); assay: SPA, displacement of 125I-GLP-1(7-36)NH2, 0.005% HSA
T1 construct: whole, on cells; Used as purified membranes of the transfected hamster cells, not whole cells; also called hGLP-1
Procedure: (§1) A shift in the binding affinity, $IC50$, is an indication that the derivative in question binds to albumin, and thereby a prediction of a potential protracted pharmacokinetic profile of the derivative in question in animal models.
(§2) 25 ul (microliter) of test compounds are added to Optiplate. HSA ("high albumin" experiment containing 2% HSA), or buffer ("low albumin" experiment containing 0.005% HSA), was added (50 ul). 5-10 µg protein/sample was added (50 ul) corresponding to 0.1-0.2 mg protein/ml (to be preferably optimised for each membrane preparation). SPA-particles (Wheatgerm agglutinin SPA beads, Perkin Elmer, #RPNQ0001) were added in an amount of 0.5 mg/well (50 ul). […] The plates were sealed with PlateSealer and incubated for 120 minutes at 30° C. while shaking. The plates were centrifuged (1500 rpm, 10 min) and counted in Topcounter.

[2] = biological target: T1, human GLP-1 receptor; assay: SPA, 2.0% vs 0.005% HSA
Procedure: as §1, §2

Binder	IC50 [1]	ratio IC50 high HSA/IC50 low HSA [2]
HAEGTFTSDVSK([AEEA-AEEA-γGlu-Decanoyl(10-(4-HOOC-PhO))])YLEEQAVREFIAK([AEEA-AEEA-γGlu-Decanoyl(10-(4-HOOC-PhO))])LVRGRG [GLP-1 derivative of Example 75: [Lys18,Glu22,Val25,Arg26,Lys31,Arg34]-GLP-1-(7-37)-peptide]	< 1000 nM	> 1
HAEGTFTSDVSK([AEEA-AEEA-AEEA-AEEA-γGlu-13‑carboxytridecanoyl])YLEEQAVREFIAK([AEEA-AEEA-AEEA-AEEA-γGlu-13‑carboxytridecanoyl])LVRGRG [GLP-1 derivative of Example 98: [Lys18,Glu22,Val25,Arg26,Lys31,Arg34]-GLP-1-(7-37)-peptide]	< 1000 nM	> 1
B1	< 1000 nM	> 1
HAEGTFTSDVSK([AEEA-AEEA-γGlu-C12 diacid])YLEEQAVREFIAK([AEEA-AEEA-γGlu-C12 diacid])LVRGRG [GLP-1 derivative of Example 124: [Lys18,Glu22,Val25,Arg26,Lys31,Arg34]-GLP-1-(7-37)-peptide]	< 1000 nM	> 1
HAEGTFTSDVSK([AEEA-AEEA-γGlu-γGlu-γGlu-13‑carboxytridecanoyl])YLEGQAAREFIAK([AEEA-AEEA-γGlu-γGlu-γGlu-13‑carboxytridecanoyl])LVRGRG [GLP-1 derivative of Example 91: [Lys18,Arg26,Lys31,Arg34]-GLP-1-(7-37)-peptide]	< 1000 nM	> 1
HAEGTFTSDVSK([AEEA-AEEA-γGlu-Decanoyl(10-(4-HOOC-PhO))])YLEGQAVREFIAK([AEEA-AEEA-γGlu-Decanoyl(10-(4-HOOC-PhO))])LVRGRG [GLP-1 derivative of Example 107: [Lys18,Val25,Arg26,Lys31,Arg34]-GLP-1-(7-37)-peptide]	< 1000 nM	> 1
HAEGTFTSDVSK([AEEA-AEEA-γGlu-γGlu-13‑carboxytridecanoyl])YLEK([AEEA-AEEA-γGlu-γGlu-13‑carboxytridecanoyl])QAAREFIAWLVQGRG [GLP-1 derivative of Example 126: [Lys18,Lys22,Arg26,Gln34]-GLP-1-(7-37)-peptide]	< 1000 nM	> 1
HAEGTFTSDVSK([AEEA-AEEA-γGlu-13‑carboxytridecanoyl])YLEGQAVREFIAK([AEEA-AEEA-γGlu-13‑carboxytridecanoyl])LVRGRG [GLP-1 derivative of Example 77: [Lys18,Val25,Arg26,Lys31,Arg34]-GLP-1-(7-37)-peptide]	< 1000 nM	> 1
HAEGTFTSDVSK([AEEA-AEEA-γGlu-Ahx-γGlu-Butanoyl(4-Ph)])YLEGQAAK([AEEA-AEEA-γGlu-Ahx-γGlu-Butanoyl(4-Ph)])EFIAWLVRGRG [GLP-1 derivative of Example 110: [Lys18,Arg34]-GLP-1-(7-37)-peptide]	< 1000 nM	> 1
HAEGTFTSDVSK([AEEA-AEEA-γGlu-γGlu-γGlu-13‑carboxytridecanoyl])YLEEQAVREFIAK([AEEA-AEEA-γGlu-γGlu-γGlu-13‑carboxytridecanoyl])LVRGRG [GLP-1 derivative of Example 101: [Lys18,Glu22,Val25,Arg26,Lys31,Arg34]-GLP-1-(7-37)-peptide]	< 1000 nM	> 1
HAEGTFTSDVSK([AEEA-AEEA-γGlu-8‑(4-carboxyphenoxy)octanoyl])YLEEQAAK([AEEA-AEEA-γGlu-8‑(4-carboxyphenoxy)octanoyl])EFIAWLVQGRG [GLP-1 derivative of Example 89: [Lys18,Glu22,Gln34]-GLP-1-(7-37)-peptide]	< 1000 nM	> 1
HAEGTFTSDVSK([γGlu-AEEA-AEEA-13‑carboxytridecanoyl])YLEGQAVREFIAK([γGlu-AEEA-AEEA-13‑carboxytridecanoyl])LVRGRG [GLP-1 derivative of Example 104: [Lys18,Val25,Arg26,Lys31,Arg34]-GLP-1-(7-37)-peptide]	< 1000 nM	> 1
HAEGTFTSDVSK([γGlu-AEEA-AEEA-Decanoyl(10-(4-HOOC-PhO))])YLEGQAAK([γGlu-AEEA-AEEA-Decanoyl(10-(4-HOOC-PhO))])EFIAWLVRGRG [GLP-1 derivative of Example 106: [Lys18,Arg34]-GLP-1-(7-37)-peptide]	< 1000 nM	> 1
HAEGTFTSDVSK([AEEA-AEEA-γGlu-Decanoyl(10-(4-HOOC-PhO))])YLEEQAAK([AEEA-AEEA-γGlu-Decanoyl(10-(4-HOOC-PhO))])EFIAWLVRGRG [GLP-1 derivative of Example 94: [Lys18,Glu22,Arg34]-GLP-1-(7-37)-peptide]	< 1000 nM	> 1
HAEGTFTSDVSK([γGlu-AEEA-AEEA-γGlu-13‑carboxytridecanoyl])YLEEQAVREFIAK([γGlu-AEEA-AEEA-γGlu-13‑carboxytridecanoyl])LVRGRG [GLP-1 derivative of Example 111: [Lys18,Glu22,Val25,Arg26,Lys31,Arg34]-GLP-1-(7-37)-peptide]	< 1000 nM	> 1
HAEGTFTSDVSK([AEEA-AEEA-γGlu-2‑(4-(4-fluorophenoxy)phenyl)acetyl])YLEK([AEEA-AEEA-γGlu-2‑(4-(4-fluorophenoxy)phenyl)acetyl])QAAREFIAWLVQGRG [GLP-1 derivative of Example 120: [Lys18,Lys22,Arg26,Gln34]-GLP-1-(7-37)-peptide]	< 1000 nM	> 1
HAEGTFTSDVSK([AEEA-AEEA-γGlu-2‑(2-(trifluoromethyl)phenyl)acetyl])YLEK([AEEA-AEEA-γGlu-2‑(2-(trifluoromethyl)phenyl)acetyl])QAAREFIAWLVQGRG [GLP-1 derivative of Example 125: [Lys18,Lys22,Arg26,Gln34]-GLP-1-(7-37)-peptide]	< 1000 nM	> 1
HAEGTFTSDVSK([AEEA-AEEA-AEEA-AEEA-AEEA-AEEA-γGlu-13‑carboxytridecanoyl])YLEEQAVREFIAK([AEEA-AEEA-AEEA-AEEA-AEEA-AEEA-γGlu-13‑carboxytridecanoyl])LVRGRG [GLP-1 derivative of Example 99: [Lys18,Glu22,Val25,Arg26,Lys31,Arg34]-GLP-1-(7-37)-peptide]	< 1000 nM	> 1
HAEGTFTSDVSK([AEEA-AEEA-γGlu-13‑carboxytridecanoyl])YLEEQAAHK([AEEA-AEEA-γGlu-13‑carboxytridecanoyl])FIAHLVQGRG [GLP-1 derivative of Example 119: [Lys18,Glu22,His26,Lys27,His31,Gln34]-GLP-1-(7-37)-peptide]	< 1000 nM	> 1
HAEGTFTSDVSK([AEEA-AEEA-γGlu-13‑carboxytridecanoyl])YLEEQAVRK([AEEA-AEEA-γGlu-13‑carboxytridecanoyl])FIAHLVQGRG [GLP-1 derivative of Example 118: [Lys18,Glu22,Val25,Arg26,Lys27,His31,Gln34]-GLP-1-(7-37)-peptide]	< 1000 nM	> 1
HAEGTFTSDVSK([AEEA-AEEA-γGlu-13‑carboxytridecanoyl])YLEEQAAK([AEEA-AEEA-γGlu-13‑carboxytridecanoyl])EFIAWLVRGRG [GLP-1 derivative of Example 96: [Lys18,Glu22,Arg34]-GLP-1-(7-37)-peptide]	< 1000 nM	> 1
HAEGTFTSDVSK([AEEA-AEEA-γGlu-Decanoyl(10-(4-HOOC-PhO))])YLEGQAAK([AEEA-AEEA-γGlu-Decanoyl(10-(4-HOOC-PhO))])EFIAWLVRGRG [GLP-1 derivative of Example 95: [Lys18,Arg34]-GLP-1-(7-37)-peptide]	< 1000 nM	> 1
